# Results taken from PMC10942865.
# T1: β-TrCP, endogenous, Q9Y297
# T1 chain: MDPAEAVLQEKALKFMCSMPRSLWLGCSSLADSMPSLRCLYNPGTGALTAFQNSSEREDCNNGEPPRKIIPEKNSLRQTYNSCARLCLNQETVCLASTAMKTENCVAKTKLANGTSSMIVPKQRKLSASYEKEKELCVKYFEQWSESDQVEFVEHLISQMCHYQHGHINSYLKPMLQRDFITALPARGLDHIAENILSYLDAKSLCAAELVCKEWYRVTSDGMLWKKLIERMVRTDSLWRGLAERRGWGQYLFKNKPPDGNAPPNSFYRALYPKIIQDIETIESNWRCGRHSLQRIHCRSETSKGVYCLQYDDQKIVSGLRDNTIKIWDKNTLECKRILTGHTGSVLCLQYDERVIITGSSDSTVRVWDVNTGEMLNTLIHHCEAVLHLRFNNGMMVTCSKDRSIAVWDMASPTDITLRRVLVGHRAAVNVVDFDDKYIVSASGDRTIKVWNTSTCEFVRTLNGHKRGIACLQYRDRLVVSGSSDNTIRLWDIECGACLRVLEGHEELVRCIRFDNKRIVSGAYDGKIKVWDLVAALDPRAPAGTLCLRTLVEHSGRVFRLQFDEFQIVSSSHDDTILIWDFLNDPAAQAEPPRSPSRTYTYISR
# Molecular target: T1, β-TrCP, endogenous, Q9Y297
# Assay: co-immunoprecipitation (IP against Flag tag, Western blot quantification)
# Details: chain shown with the change; HEK293T cells, 48 h overexpression, N = 3; parent: est. 1.0; read off a plot
row,Binder,ratio to parent
1,"Flag-PLK4 wt (polo-like kinase 4), full-length, O00444 K41R (protein) MATCIGEKIEDFKVGNLLGKGSFAGVYRAESIHTGLEVAIRMIDKKAMYKAGMVQRVQNEVKIHCQLKHPSILELYNYFEDSNYVYLVLEMCHNGEMNRYLKNRVKPFSENEARHFMHQIITGMLYLHSHGILHRDLTLSNLLLTRNMNIKIADFGLATQLKMPHEKHYTLCGTPNYISPEIATRSAHGLESDVWSLGCMFYTLLIGRPPFDTDTVKNTLNKVVLADYEMPSFLSIEAKDLIHQLLRRNPADRLSLSSVLDHPFMSRNSSTKSKDLGTVEDSIDSGHATISTAITASSSTSISGSLFDKRRLLIGQPLPNKMTVFPKNKSSTDFSSSGDGNSFYTQWGNQETSNSGRGRVIQDAEERPHSRYLRRAYSSDRSGTSNSQSQAKTYTMERCHSAEMLSVSKRSGGGENEERYSPTDNNANIFNFFKEKTSSSSGSFERPDNNQALSNHLCPGKTPFPFADPTPQTETVQQWFGNLQINAHLRKTTEYDSISPNRDFQGHPDLQKDTSKNAWTDTKVKKNSDASDNAHSVKQQNTMKYMTALHSKPEIIQQECVFGSDPLSEQSKTRGMEPPWGYQNRTLRSITSPLVAHRLKPIRQKTKKAVVSILDSEEVCVELVKEYASQEYVKEVLQISSDGNTITIYYPNGGRGFPLADRPPSPTDNISRYSFDNLPEKYWRKYQYASRFVQLVRSKSPKITYFTRYAKCILMENSPGADFEVWFYDGVKIHKTEDFIQVIEKTGKSYTLKSESEVNSLKEEIKMYMDHANEGHRICLALESIISEEERKTRSAPFFPIIIGRKPGSTSSPKALSPPPSVDSNYPTRERASFNRMVMHSAASPTQAPILNPSMVTNEGLGLTTTASGTDISSNSLKDCLPKSAQLLKSVFVKNVGWATQLTSGAVWVQFNDGSQLVVQAGVSSISYTSPNGQTTRYGENEKLPDYIKQKLQCLSSILLMFSNPTPNFH",0.07
2,"Flag-PLK4 wt (polo-like kinase 4), full-length, O00444 S285A; T289A (protein) MATCIGEKIEDFKVGNLLGKGSFAGVYRAESIHTGLEVAIKMIDKKAMYKAGMVQRVQNEVKIHCQLKHPSILELYNYFEDSNYVYLVLEMCHNGEMNRYLKNRVKPFSENEARHFMHQIITGMLYLHSHGILHRDLTLSNLLLTRNMNIKIADFGLATQLKMPHEKHYTLCGTPNYISPEIATRSAHGLESDVWSLGCMFYTLLIGRPPFDTDTVKNTLNKVVLADYEMPSFLSIEAKDLIHQLLRRNPADRLSLSSVLDHPFMSRNSSTKSKDLGTVEDSIDAGHAAISTAITASSSTSISGSLFDKRRLLIGQPLPNKMTVFPKNKSSTDFSSSGDGNSFYTQWGNQETSNSGRGRVIQDAEERPHSRYLRRAYSSDRSGTSNSQSQAKTYTMERCHSAEMLSVSKRSGGGENEERYSPTDNNANIFNFFKEKTSSSSGSFERPDNNQALSNHLCPGKTPFPFADPTPQTETVQQWFGNLQINAHLRKTTEYDSISPNRDFQGHPDLQKDTSKNAWTDTKVKKNSDASDNAHSVKQQNTMKYMTALHSKPEIIQQECVFGSDPLSEQSKTRGMEPPWGYQNRTLRSITSPLVAHRLKPIRQKTKKAVVSILDSEEVCVELVKEYASQEYVKEVLQISSDGNTITIYYPNGGRGFPLADRPPSPTDNISRYSFDNLPEKYWRKYQYASRFVQLVRSKSPKITYFTRYAKCILMENSPGADFEVWFYDGVKIHKTEDFIQVIEKTGKSYTLKSESEVNSLKEEIKMYMDHANEGHRICLALESIISEEERKTRSAPFFPIIIGRKPGSTSSPKALSPPPSVDSNYPTRERASFNRMVMHSAASPTQAPILNPSMVTNEGLGLTTTASGTDISSNSLKDCLPKSAQLLKSVFVKNVGWATQLTSGAVWVQFNDGSQLVVQAGVSSISYTSPNGQTTRYGENEKLPDYIKQKLQCLSSILLMFSNPTPNFH",0.03
